Reference: article PMC2650715 (DNA repair, 2008)

Columns and labels:
Experiment in all cases: pull-down
[1] = molecular target: T1, Saccharomyces cerevisiae Rdh54 (S. cerevisiae, UniProt P38086 1-958)
T1 sequence (looked up): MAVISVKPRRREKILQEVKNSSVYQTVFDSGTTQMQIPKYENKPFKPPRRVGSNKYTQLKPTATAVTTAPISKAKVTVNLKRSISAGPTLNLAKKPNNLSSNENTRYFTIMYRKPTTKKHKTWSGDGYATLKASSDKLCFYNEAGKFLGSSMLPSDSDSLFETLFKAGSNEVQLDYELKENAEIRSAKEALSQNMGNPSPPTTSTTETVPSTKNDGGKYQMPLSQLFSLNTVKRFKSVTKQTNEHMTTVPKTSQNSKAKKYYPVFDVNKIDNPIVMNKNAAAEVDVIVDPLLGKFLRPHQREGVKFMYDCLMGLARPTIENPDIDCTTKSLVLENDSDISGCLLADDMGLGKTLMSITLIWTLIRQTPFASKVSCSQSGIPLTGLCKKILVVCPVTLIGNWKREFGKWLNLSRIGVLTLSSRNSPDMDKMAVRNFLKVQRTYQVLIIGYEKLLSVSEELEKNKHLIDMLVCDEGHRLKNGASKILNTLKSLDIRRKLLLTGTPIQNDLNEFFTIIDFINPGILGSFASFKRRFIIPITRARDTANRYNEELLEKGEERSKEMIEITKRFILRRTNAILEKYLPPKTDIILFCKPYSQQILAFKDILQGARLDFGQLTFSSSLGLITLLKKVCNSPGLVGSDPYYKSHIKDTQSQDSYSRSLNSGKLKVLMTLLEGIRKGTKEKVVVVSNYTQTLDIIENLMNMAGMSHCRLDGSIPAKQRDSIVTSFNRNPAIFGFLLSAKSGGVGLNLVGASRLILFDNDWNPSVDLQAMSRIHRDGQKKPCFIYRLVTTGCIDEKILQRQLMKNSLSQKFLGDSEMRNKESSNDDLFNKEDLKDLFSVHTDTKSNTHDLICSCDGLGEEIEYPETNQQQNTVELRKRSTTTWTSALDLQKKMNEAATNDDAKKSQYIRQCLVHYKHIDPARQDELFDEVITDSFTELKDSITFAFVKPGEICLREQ

[2] = molecular target: T2, Saccharomyces cerevisiae Rdh54 K352R mutant variant (S. cerevisiae, UniProt P38086 1-958, K352R)
T2 sequence (looked up): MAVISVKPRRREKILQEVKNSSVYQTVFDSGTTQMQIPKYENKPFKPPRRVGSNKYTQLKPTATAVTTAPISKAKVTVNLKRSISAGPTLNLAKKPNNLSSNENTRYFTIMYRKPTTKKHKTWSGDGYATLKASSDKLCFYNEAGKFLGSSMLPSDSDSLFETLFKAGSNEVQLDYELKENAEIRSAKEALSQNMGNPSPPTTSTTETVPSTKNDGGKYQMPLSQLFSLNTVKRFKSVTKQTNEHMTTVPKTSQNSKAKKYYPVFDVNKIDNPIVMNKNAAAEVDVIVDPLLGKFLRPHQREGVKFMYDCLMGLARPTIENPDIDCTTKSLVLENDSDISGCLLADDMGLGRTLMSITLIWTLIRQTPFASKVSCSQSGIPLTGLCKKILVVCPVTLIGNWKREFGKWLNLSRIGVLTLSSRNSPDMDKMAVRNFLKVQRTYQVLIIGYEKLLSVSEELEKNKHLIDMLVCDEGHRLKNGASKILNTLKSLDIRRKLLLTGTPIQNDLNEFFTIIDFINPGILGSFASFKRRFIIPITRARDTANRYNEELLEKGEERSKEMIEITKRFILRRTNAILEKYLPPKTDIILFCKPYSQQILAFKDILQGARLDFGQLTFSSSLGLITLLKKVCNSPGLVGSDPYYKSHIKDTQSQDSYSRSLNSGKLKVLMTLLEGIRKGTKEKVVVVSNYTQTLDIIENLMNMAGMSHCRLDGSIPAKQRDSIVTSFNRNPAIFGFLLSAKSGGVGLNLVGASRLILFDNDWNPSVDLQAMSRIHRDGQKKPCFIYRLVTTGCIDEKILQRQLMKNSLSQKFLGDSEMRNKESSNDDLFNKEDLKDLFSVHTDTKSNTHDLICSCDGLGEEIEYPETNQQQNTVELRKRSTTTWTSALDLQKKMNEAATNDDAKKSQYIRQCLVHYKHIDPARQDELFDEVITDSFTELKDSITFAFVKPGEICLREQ

[3] = molecular target: T3, Schizosaccharomyces pombe Rdh54 (S. pombe, UniProt Q09772 1-811)
T3 sequence (looked up): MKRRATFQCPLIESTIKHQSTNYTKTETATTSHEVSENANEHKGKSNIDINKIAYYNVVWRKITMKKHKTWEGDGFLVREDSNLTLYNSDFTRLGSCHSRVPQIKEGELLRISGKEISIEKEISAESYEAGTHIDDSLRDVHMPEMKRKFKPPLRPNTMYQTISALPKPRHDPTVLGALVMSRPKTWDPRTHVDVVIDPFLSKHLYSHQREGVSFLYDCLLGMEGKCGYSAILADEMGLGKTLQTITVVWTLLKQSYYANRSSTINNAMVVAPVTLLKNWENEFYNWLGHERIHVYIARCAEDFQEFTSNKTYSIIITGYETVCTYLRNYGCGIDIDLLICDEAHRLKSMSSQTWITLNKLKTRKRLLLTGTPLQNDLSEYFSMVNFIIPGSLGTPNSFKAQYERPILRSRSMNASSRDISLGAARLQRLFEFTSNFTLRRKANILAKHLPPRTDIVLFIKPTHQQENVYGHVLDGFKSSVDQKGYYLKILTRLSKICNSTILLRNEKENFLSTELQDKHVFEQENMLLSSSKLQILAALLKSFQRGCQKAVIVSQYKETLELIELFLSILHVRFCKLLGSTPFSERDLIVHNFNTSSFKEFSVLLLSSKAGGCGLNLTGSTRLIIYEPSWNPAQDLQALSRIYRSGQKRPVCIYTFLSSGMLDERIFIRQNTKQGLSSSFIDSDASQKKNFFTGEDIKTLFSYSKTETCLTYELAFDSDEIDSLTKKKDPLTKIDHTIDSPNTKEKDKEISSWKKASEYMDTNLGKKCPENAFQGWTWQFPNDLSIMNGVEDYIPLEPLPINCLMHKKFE

- binding result [1]: binds
- binding result [2]: binds
- binding result [3]: binds
B1: Schizosaccharomyces pombe Dmc1 (enzyme, S. pombe, UniProt O42634 1-332, looked up)
chain: MEEFAEGNDDEQMIFSDIEDLTAHGIGMTDIIKLKQAGVCTVQGVHMSTKRFLLKIKGFSEAKVDKLKEAASKMCPANFSTAMEISQNRKKVWSISTGSEALNGILGGGIQSMSITEVFGEFRCGKTQMSHTLCVTAQLPRDMGGAEGKVAFIDTEGTFRPDRIKAIAERFGVDADQAMENIIVSRAYNSEQQMEYITKLGTIFAEDGQYRLLIVDSIMALFRVDYSGRGELSERQQKLNIMLARLNHISEEFNVAVFVTNQVQADPGAAMMFASNDRKPVGGHVMAHASATRLLLRKGRGEERVAKLNDSPDMPEAECSYVITPGGIADVS
modifications: covalently coupled to Affi-Gel 15 beads
